Test results reported in US20200093883A1 (published 2020).
Square brackets hold non-standard residues; d marks the D form. Ends that are not written are not given here.

Key:
Experiment in all cases: AlphaScreen
[1] = target: hJNK3
[2] = target: hJNK1
[3] = target: hJNK2

Binder	IC50 [1]	IC50 [2]	IC50 [3]
[dD][dQ][dS][dR][dP][dV][dQ][dP][dF][dL][dN][dL][dT][dT][dP][dR][dK][dP][dR][dP][dP][dR][dR][dR][dQ][dR][dR][dK][dK][dR]G [SEQ ID NO: 197]	1290 nM	24.4 µM	802 nM
[dR]KKR[dR]QRR[dR]RP[dK]RP[dA]TLNL[dF]-NH2 (N-terminus assumed; SMILES CC(C)C[C@H](NC(=O)[C@H](CC(N)=O)NC(=O)[C@H](CC(C)C)NC(=O)[C@@H](NC(=O)[C@@H](C)NC(=O)[C@@H]1CCCN1C(=O)[C@H](CCCNC(=N)N)NC(=O)[C@@H](CCCCN)NC(=O)[C@@H]1CCCN1C(=O)[C@H](CCCNC(=N)N)NC(=O)[C@@H](CCCNC(=N)N)NC(=O)[C@H](CCCNC(=N)N)NC(=O)[C@H](CCCNC(=N)N)NC(=O)[C@H](CCC(N)=O)NC(=O)[C@@H](CCCNC(=N)N)NC(=O)[C@H](CCCNC(=N)N)NC(=O)[C@H](CCCCN)NC(=O)[C@H](CCCCN)NC(=O)[C@H](N)CCCNC(=N)N)[C@@H](C)O)C(=O)N[C@H](Cc1ccccc1)C(N)=O) [SEQ ID NO: 172]	102 nM	0.722 µM	54.7 nM
